Earlier results on 1 substance are cited in patent US10064909B2, “Compositions and methods for chronic use of a weight-gaining compound” (priority 2015, dated 2018).

Ends that are not written are not given here.

The conditions of the data set: in vivo; cited from earlier work.

In the case of “Ghrelin: hormone produced predominantly in the glandular stomach; endogenous ligand of the ghrelin receptor (GHS-R) (GSSFLSPEHQRVQQRKESKKPPAKLQPR; ends and bridges not checked; UniProt Q9UBU3 24-51, looked up)”, the “half-life in the blood” value was “approximately ten minutes”.
